Laboratory results: patent US20070253950A1

Columns and labels:
[1] = biological target: human RAGE-strep tag fusion protein (human) (UniProt Q15109); test: BIACORE capture assay: hRAGE-SA over antibody captured on anti-human Fc; steady state affinity; FC2
[2] = biological target: human RAGE-strep tag fusion protein (human) (UniProt Q15109); test: BIACORE capture assay: hRAGE-SA over antibody captured on anti-human Fc; steady state affinity; FC3
[3] = biological target: human RAGE-strep tag fusion protein (human) (UniProt Q15109); test: BIACORE capture assay: hRAGE-SA over antibody captured on anti-human Fc; steady state affinity; FC4
[4] = biological target: human RAGE-strep tag fusion protein (human) (UniProt Q15109); test: BIACORE capture assay: hRAGE-SA over antibody captured on anti-human Fc; 1:1 Langmuir global fit; FC2
[5] = biological target: human RAGE-strep tag fusion protein (human) (UniProt Q15109); test: BIACORE capture assay: hRAGE-SA over antibody captured on anti-human Fc; 1:1 Langmuir global fit; FC3
[6] = biological target: human RAGE-strep tag fusion protein (human) (UniProt Q15109); test: BIACORE capture assay: hRAGE-SA over antibody captured on anti-human Fc; 1:1 Langmuir global fit; FC4
[7] = biological target: human RAGE-strep tag fusion protein (human) (UniProt Q15109); test: BIACORE capture assay: hRAGE-SA over antibody captured on anti-human Fc; steady state affinity; average of FC2-FC4
[8] = biological target: murine RAGE-strep tag fusion protein (murine) (UniProt Q62151); test: BIACORE capture assay: mRAGE-SA (SA-Mu RAGE) over antibody captured on anti-human Fc; 1:1 Langmuir global fit; FC2
murine RAGE-strep tag fusion protein (murine), sequence (Q62151 other isoform, or with tags, fused parts or gaps): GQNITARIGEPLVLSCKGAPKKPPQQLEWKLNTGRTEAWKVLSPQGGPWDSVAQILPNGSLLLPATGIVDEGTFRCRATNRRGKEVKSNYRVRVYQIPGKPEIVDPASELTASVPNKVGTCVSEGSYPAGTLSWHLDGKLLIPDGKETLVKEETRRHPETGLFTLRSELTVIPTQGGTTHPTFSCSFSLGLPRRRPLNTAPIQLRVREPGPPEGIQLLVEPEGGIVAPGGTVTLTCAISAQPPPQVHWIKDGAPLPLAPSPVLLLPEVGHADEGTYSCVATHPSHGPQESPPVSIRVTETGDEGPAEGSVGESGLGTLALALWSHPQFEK

[9] = biological target: murine RAGE-strep tag fusion protein (murine) (UniProt Q62151); test: BIACORE capture assay: mRAGE-SA (SA-Mu RAGE) over antibody captured on anti-human Fc; 1:1 Langmuir global fit; FC3
[10] = biological target: murine RAGE-strep tag fusion protein (murine) (UniProt Q62151); test: BIACORE capture assay: mRAGE-SA (SA-Mu RAGE) over antibody captured on anti-human Fc; 1:1 Langmuir global fit; FC4
[11] = biological target: human RAGE-strep tag fusion protein (human) (UniProt Q15109); test: BIACORE capture assay: hRAGE-SA over antibody captured on anti-human Fc; 1:1 Langmuir global fit; average of FC2-FC4
[12] = biological target: murine RAGE-strep tag fusion protein (murine) (UniProt Q62151); test: BIACORE capture assay: mRAGE-SA (SA-Mu RAGE) over antibody captured on anti-human Fc; 1:1 Langmuir global fit; average of FC2-FC4

human RAGE-strep tag fusion protein (human), sequence (Q15109 other isoform, or with tags, fused parts or gaps): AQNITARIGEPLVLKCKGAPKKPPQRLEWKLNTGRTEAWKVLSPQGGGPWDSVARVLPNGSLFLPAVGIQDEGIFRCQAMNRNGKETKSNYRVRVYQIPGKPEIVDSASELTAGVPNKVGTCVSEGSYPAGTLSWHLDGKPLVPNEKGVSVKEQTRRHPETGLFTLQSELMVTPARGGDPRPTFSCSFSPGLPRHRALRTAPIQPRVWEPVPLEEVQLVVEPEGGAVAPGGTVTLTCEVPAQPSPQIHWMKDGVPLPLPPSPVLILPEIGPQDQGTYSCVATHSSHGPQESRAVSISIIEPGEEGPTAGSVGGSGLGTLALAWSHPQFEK

B1: XT-M4-V10 (antibody, from a related filing, V domains shown)
VH: EVQLVESGGGLVQPGGSLRLSCAASGFTFNNYWMTWVRQAPGKGLEWVASIDNSGDNTYYPDSVKDRFTISRDNAKNSLYLQMNSLRAEDTAVYYCARGGDITTGFDYWGQGTLVTVSS
VL: DIQMTQSPSSLSASVGDRVTITCRASQDVGIYVNWFQQKPGKAPKRLIYRATNLADGVPSRFSGSGSGTDFTLTISSLQPEDFATYYCLEFDEHPLTFGGGTKVEIK
With B1 the Kd [1] was 25 nM, the Kd [2] was 24 nM and the Kd [3] was 26 nM. The Kd [4] was 31.8 nM, the koff [4] was 0.00972 s⁻¹ and the kon [4] was 306000 M⁻¹ s⁻¹. For the same binder, the Kd [5] was 18.2 nM, the koff [5] was 0.0569 s⁻¹ and the kon [5] was 3.13e+06 M⁻¹ s⁻¹. The Kd [6] was 20.3 nM, the koff [6] was 0.0704 s⁻¹ and the kon [6] was 3.47e+06 M⁻¹ s⁻¹. For the same binder, the Kd [7] was 25 nM, the Kd [8] was 3 nM and the koff [8] was 0.0078 s⁻¹. It also gave a kon [8] of 2.6e+06 M⁻¹ s⁻¹, a Kd [9] of 2.9 nM and a koff [9] of 0.0076 s⁻¹. It also gave a kon [9] of 2.6e+06 M⁻¹ s⁻¹, a Kd [10] of 3 nM and a koff [10] of 0.0078 s⁻¹. The kon [10] was 2.6e+06 M⁻¹ s⁻¹, the Kd [11] was 23.4 nM and the koff [11] was 0.0457 s⁻¹. For the same binder, the kon [11] was 2.3e+06 M⁻¹ s⁻¹, the Kd [12] was 3 nM and the koff [12] was 0.0077 s⁻¹. It also gave a kon [12] of 2.6e+06 M⁻¹ s⁻¹.

B2: XT-M4-V14 (antibody, from a related filing, V domains shown)
VH: EVQLVESGGGLVQPGGSLRLSCAASGFTFNNYWMTWVRQAPGKGLEWVASIDNSGDNTYYPDSVKDRFTISRDNAKNSLYLQMNSLRAEDTAVYYCARGGDITTGFDYWGQGTLVTVSS
VL: DIQMTQSPSSLSASVGDRVTITCRASQDVGIYVNWFQQKPGKAPKRLIYRATNLADGVPSRFSGSRSGTDFTLTISSLQPEDFATYYCLEFDEHPLTFGGGTKVEIK
For B2, the Kd [1] was 16 nM, the Kd [2] was 15 nM and the Kd [3] was 16 nM. It also gave a Kd [4] of 13.8 nM, a koff [4] of 0.0366 s⁻¹ and a kon [4] of 2.66e+06 M⁻¹ s⁻¹. It also gave a Kd [5] of 11.7 nM, a koff [5] of 0.0464 s⁻¹ and a kon [5] of 3.96e+06 M⁻¹ s⁻¹. The Kd [6] was 13.2 nM, the koff [6] was 0.0661 s⁻¹ and the kon [6] was 5.02e+06 M⁻¹ s⁻¹. It also gave a Kd [7] of 16 nM, a Kd [8] of 2 nM and a koff [8] of 0.0043 s⁻¹. For the same binder, the kon [8] was 2.2e+06 M⁻¹ s⁻¹, the Kd [9] was 1.9 nM and the koff [9] was 0.004 s⁻¹. It also gave a kon [9] of 2.1e+06 M⁻¹ s⁻¹, a Kd [10] of 2 nM and a koff [10] of 0.0041 s⁻¹. It also gave a kon [10] of 2.1e+06 M⁻¹ s⁻¹, a Kd [11] of 12.9 nM and a koff [11] of 0.0497 s⁻¹. The kon [11] was 3.88e+06 M⁻¹ s⁻¹, the Kd [12] was 2 nM and the koff [12] was 0.0042 s⁻¹. The kon [12] was 2.1e+06 M⁻¹ s⁻¹.

B3: XT-M4-V11 (antibody, from a related filing, V domains shown)
VH: EVQLVESGGGLVQPGGSLRLSCAASGFTFNNYWMTWVRQAPGKGLEWVASIDNSGDNTYYPDSVKDRFTISRDNAKNSLYLQMNSLRAEDTAVYYCARGGDITTGFDYWGQGTLVTVSS
VL: DIQMTQSPSSLSASVGDRVTITCRASQDVGIYVNWFQQKPGKAPRRLIYRATNLADGVPSRFSGSRSGTDFTLTISSLQPEDFATYYCLEFDEHPLTFGGGTKVEIK
For B3, the Kd [1] was 16 nM, the Kd [2] was 15 nM and the Kd [3] was 17 nM. For the same binder, the Kd [4] was 13 nM, the koff [4] was 0.033 s⁻¹ and the kon [4] was 2.5e+06 M⁻¹ s⁻¹. The Kd [5] was 12 nM, the koff [5] was 0.039 s⁻¹ and the kon [5] was 3.4e+06 M⁻¹ s⁻¹. The Kd [6] was 13 nM, the koff [6] was 0.041 s⁻¹ and the kon [6] was 3.2e+06 M⁻¹ s⁻¹. The Kd [7] was 16 nM, the Kd [8] was 2 nM and the koff [8] was 0.0043 s⁻¹. For the same binder, the kon [8] was 2.2e+06 M⁻¹ s⁻¹, the Kd [9] was 2 nM and the koff [9] was 0.0042 s⁻¹. The kon [9] was 2.1e+06 M⁻¹ s⁻¹, the Kd [10] was 2 nM and the koff [10] was 0.0041 s⁻¹. It also gave a kon [10] of 2e+06 M⁻¹ s⁻¹, a Kd [11] of 12.5 nM and a koff [11] of 0.0374 s⁻¹. It also gave a kon [11] of 3.01e+06 M⁻¹ s⁻¹, a Kd [12] of 2 nM and a koff [12] of 0.0042 s⁻¹. It also gave a kon [12] of 2.1e+06 M⁻¹ s⁻¹.
